Measurements reported in patent US5691166.

Experiments:
[1] = biological target: acid-denatured hemoglobin
[2] = biological target: epidermal growth factor (recombinantly synthesized molecule consisting of the first 52 amino acids of the authentic 53 amino acid EGF molecule)
[3] = biological target: growth hormone releasing factor (recombinantly synthesized as described in EP 206783)

Substance	proteinase A activity, ΔOD/µg protein (release of amino acids from acid-denatured hemoglobin, 90 min) (ΔOD/µg protein) [1]	intact peptide remaining after 8 h incubation in broth (reverse phase HPLC) [2]	intact peptide remaining after 4 h incubation in broth (reverse phase HPLC) [3]
Pichia pastoris proteinase A (product of the Pichia PEP4 gene) (enzyme)	13.1	–	–
Saccharomyces cerevisiae proteinase A (encoded by the S. cerevisiae PEP4 gene) (from UniProt P07267) (enzyme)	28.1	–	–
proteolytic activity of the cell-free broth from a one-liter fermentation of the HIS4 PEP4 P. pastoris strain G+PAO804H2	–	< 10 % intact	< 10 % intact
proteolytic activity of the cell-free broth from the one-liter fermentation of the pep4 P. pastoris strain p13	–	> 90 % intact	> 60 % intact
